Measurements taken from patent US6958236B2, “Control of gene expression in plants” (priority 2000, dated 2005).

B1: MBV: EcR chimera: Manduca sexta C+D domains, black cutworm (Agrotis ipsilon) E domain, VP16; SEQ ID NO:65-66 (protein)
chain: MGREELSPASSINGCSTDGEPRRQKKGPAPRQQEELCLVCGDRASGYHYNALTCEGCKGFFRRSVTKNAVYICKFGHACEMDMYMRRKCQECRLKKCLAVGMRPECVVPESTCKNKRREKEAQREKDKLPVSTTTVDDHMPAIMQCDPPPPEAARIHEVVPRFLTEKLMEQNRLKNVTPLSANQKSLIARLVWYQEGYEQPSEEDLKRVTQTWQSDEDEEESDMPFRQITEMTILTVQLIVEFAKGLPGFAKISQSDQITLLKACSSEVMMLRVARRYDAATDSVLFANNQAYSRDNYRKAGMSYVIEDLLHFCRCMYSMMMDNVHYALLTAIVIFSDRPGLEQPLLVEEIQRYYLNTLRVYILNQNSASPRCPVVFAKILGILTELRTLGMQNSNMCISLKLKNRKLPPFLEEIWDVESRGKLAPPTDVSLGDELHLDGEDVAMAHADALDDFDLDMLGDGDSPGPGFTPHDSAPYGALDMADFEFEQMFTDALGIDEYGG
B2: MFV: EcR chimera: Manduca sexta C+D domains, fall armyworm (Spodoptera frugiperda) E domain, VP16; SEQ ID NO:69-70 (protein)
chain: MGREELSPASSINGCSTDGEPRRQKKGPAPRQQEELCLVCGDRASGYHYNALTCEGCKGFFRRSVTKNAVYICKFGHACEMDMYMRRKCQECRLKKCLAVGMRPECVVPESTCKNKRREKEAQREKDKLPVSTTTVDDHMPAIMQCDPPPPEAARIHEVVPRFLTEKLMEQNRLKNVTPLSANQKSLIARLVWYQEGYEQPSEEDLKRVTQTWQLEEEEEEETDMPFRQITEMTILTVQLIVEFAKGLPGFSKISQSDQITLLKASSSEVMMLRVARRYDAATDSVLFANNQAYTRDNYRKAGMSYVIGDLLHFCRCMYSMSMDNVHYALLTAIVIFSDRPGLEQPLLVEEIQRYYLKTLRVYILNQYSASPRCAVLFGKILGVLTELRTLGTQNSNMCISLKLKNRKLPPFLEEIWDVKLAPPTDVSLGDELHLDGEDVAMAHADALDDFDLDMLGDGDSPGPGFTPHDSAPYGALDMADFEFEQMFTDALGIDEYGG
B3: MEV: EcR chimera: Manduca sexta C+D domains, European corn borer (Ostrinia nubilalis) E domain, VP16; SEQ ID NO:67-68 (protein)
chain: MGREELSPASSINGCSTDGEPRRQKKGPAPRQQEELCLVCGDRASGYHYNALTCEGCKGFFRRSVTKNAVYICKFGHACEMDMYMRRKCQECRLKKCLAVGMRPECVVPESTCKNKRREKEAQREKDKLPVSTTTVDDHMPAIMQCDPPPPEAARIHEVVPRFLTEKLMEQNRLKNVTPLSANQKSLIARLVWYQDGYEQPSEEDLKRVTQTWQSADEEDEDSDMPFRQITEMTILTVQLIVEFAKGLPGFSKISQPDQITLLKACSSEVMMLRVARRYDAVSDSVLFANNQAYTRDNYRKAGMAYVIEDLLHFCRCMYSMSMDNVHYALLTAIVIFSDRPGLEQPQLVEEIQRYYLNTLRVYIMNQHSASPRCAVIYAKILSVLTELRTLGMQNSNMCISLKLKNRKLPPFLEEIWDVKLAPPTDVSLGDELHLDGEDVAMAHADALDDFDLDMLGDGDSPGPGFTPHDSAPYGALDMADFEFEQMFTDALGIDEYGG
B4: LLV: EcR chimera: Locusta migratoria C+D and E domains, VP16; SEQ ID NO:81-82 (protein)
chain: MGREDLSPLSSLNGYSADSCDAKKKKGAAPRQQEELCLVCGDRASGYHYNALTCEGCKGFFRRSITKNAVYQCKYGNNCEIDMYMRRKCQECRLKKCLTVGMRPECVVPEYQCAVKRKEKKAQKDKDKPNSTTNGSPEVMMLKDIDAKVEPERPLSNGIKPVSPEQEELIHRLVYFQNEYESPSEEDLRRVTSQPTEGEDQSDVRFRHITEITILTVQLIVEFAKRLPGFDKLLREDQIALLKACSSEVMMFRMARRYDVNSDSILFANNQPYTKDSYNLAGMGETIEDMLRFCRQMYAMKVDNAEYALLTAIVIFSERPSLVEGWKVEKIQEIYLEALKAYVDNRRRPKSGTIFAKLLSVLTELRTLGNQNSEMCFSLKLKNKKLPPFLAEIWDVIPKLAPPTDVSLGDELHLDGEDVAMAHADALDDFDLDMLGDGDSPGPGFTPHDSAPYGALDMADFEFEQMFTDALGIDEYGG
B5: MDV: EcR chimera: Manduca sexta C+D domains, Drosophila melanogaster E domain, VP16 activation domain; SEQ ID NO:63-64 (protein)
chain: MGREELSPASSINGCSTDGEPRRQKKGPAPRQQEELCLVCGDRASGYHYNALTCEGCKGFFRRSVTKNAVYICKFGHACEMDMYMRRKCQECRLKKCLAVGMRPECVVPESTCKNKRREKEAQREKDKLPVSTTTVDDHMPAIMQCDPPPPEAARIHEVVPRFLTEKLMEQNRLKNVTPLSANQKSLIARLVWYQDGYEQPSEEDLRRIMSQPDENESQTDVSFRHITEITILTVQLIVEFAKGLPAFTKIPQEDQITLLKACSSEVMMLRMARRYDHSSDSIFFANNRSYTRDSYKMAGMADNIEDLLHFCRQMFSMKVDNVEYALLTAIVIFSDRPGLEKAQLVEAIQSYYIDTLRIYILNRHCGDSMSLVFYAKLLSILTELRTLGNQNAEMCFSLKLKNRKLPKFLEEIWDVHAIPPKLAPPTDVSLGDELHLDGEDVAMAHADALDDFDLDMLGDGDSPGPGFTPHDSAPYGALDMADFEFEQMFTDALGIDEYGG
B6: MLV: EcR chimera: Manduca sexta C+D domains, Locusta migratoria E domain, VP16; SEQ ID NO:85-86 (protein)
chain: MGREELSPASSINGCSTDGEPRRQKKGPAPRQQEELCLVCGDRASGYHYNALTCEGCKGFFRRSVTKNAVYICKFGHACEMDMYMRRKCQECRLKKCLAVGMRPECVVPESTCKNKRREKEAQREKDKLPVSTTTVDDHMPAIMQCDPPPPEAARIHEVVPRFLTEKLMEQNRLKNVTPLSANQKSLIARLVWYQNEYESPSEEDLRRVTSQPTEGEDQSDVRFRHITEITILTVQLIVEFAKRLPGFDKLLREDQIALLKACSSEVMMFRMARRYDVNSDSILFANNQPYTKDSYNLAGMGETIEDMLRFCRQMYAMKVDNAEYALLTAIVIFSERPSLVEGWKVEKIQEIYLEALKAYVDNRRRPKSGTIFAKLLSVLTELRTLGNQNSEMCFSLKLKNKKLPPFLAEIWDVIPKLAPPTDVSLGDELHLDGEDVAMAHADALDDFDLDMLGDGDSPGPGFTPHDSAPYGALDMADFEFEQMFTDALGIDEYGG

Test system: pCGS154 reporter
Assay: Transient transfection of S2 Drosophila cells with luciferase reporter and EcR receptor plasmids
Assay type: cell-based
Description: An in vivo cell based assay is designed to measure transcriptional activation by the receptors of a reporter plasmid. S2 Drosophila cells (ATCC CRL-1963) are transiently transfected with luciferase reporter and receptor expression plasmids using the calcium phosphate precipitation procedure (Di Nocera and David (1983) PNAS 80, 7095-7098). S2 cells are plated in 96 well format at a density of 2×10^5 in 166.6 μl of Schneider's Drosophila media supplemented with antibiotics and 10% heat inactivated fetal bovine serum (GIBO-BRL). The following day, 33.4 μl of a calcium phosphate precipitate containing 3-6 ng of pCGS154 reporter plasmid, 3-6 ng of EcR receptor plasmid along with salmon sperm DNA to a total of 400 ng DNA per well is added. Chemical ligands are added 16-24 hours after DNA addition to the cells. Cells are then harvested and extracted 24 hours after chemistry addition following the procedures for the luciferase assay by centrifuging and resuspending the cell pellets in 100 μl of cell culture lysis reagent (Promega). Luciferase activity is quantitated using chemiluminescence (Promega) using an analytical luminescence model 2001 luminometer.
S2 cells contain Drosophila EcR and USP. The endogenous USP can be used as the heterodimerization partner for EcR or exogenous USP expression plasmid can be added to the assay.
To compare the activities of Manduca and Drosophila EcR, S2 cells are transiently transfected using the above procedure with the reporter plasmid pCGS 154 and either full-length Drosophila EcR, DDV, full-length Manduca EcR, or MMV. Tebufenozide at 0.2 µM and 2 μM is used as the chemical ligand. Luciferase assays are performed as described above. All of the results are normalized as a ratio of activity to the light unit value for the pCGS154 reporter without chemistry.
The activities of the EcR-VP16 chimeras are compared by transiently transfecting S2 cells as described in Example 3. Tebufenozide is added to the cells at 0.2 μM concentration. Results are expressed as fold activation, a ratio of the activity of the constructs with chemistry added as compared to activity of the constructs without chemistry. All results are normalized to the luciferase activity of the pCGS154 reporter without receptor addition.
(§1) The activities of the EcR-VP16 chimeras are compared by transiently transfecting S2 cells as in Example 3. Tebufenozide is added to the cells at 0.2 μM concentration. Results are expressed as fold activation of constructs with chemistry as compared to without chemistry. All results are normalized to the luciferase activity of the pCGS154 reporter without receptor.
as §1, with “chemistry addition.” for “chemistry.”

[1] = Example 6, 0.2 μM tebufenozide vs without chemistry, normalized to pCGS154 reporter without receptor

Molecule	Fold Activation With Chemistry Assay #1 (Example 7, 0.2 μM tebufenozide) [fold]	Fold Activation With Chemistry Assay #2 (Example 7, 0.2 μM tebufenozide) [fold]	Fold Activation With Chemistry Assay #1 (Example 8, 0.2 μM tebufenozide) [fold]	Fold Activation With Chemistry Assay #2 (Example 8, 0.2 μM tebufenozide) [fold]	Fold Activation With Chemistry (Example 6, third column (LLV, LMV), 0.2 μM tebufenozide) [fold]	Assay # 1 Fold Activation With Chemistry [1] [fold]	Assay # 2 Fold Activation With Chemistry [1] [fold]
B1	215.7	211.1	559.1	866.7			
B2	159.9	175.4					
B3	363.7	131.5					
B4					0.47		
B5	1.1	1.1				1.20	1.18
B6	1.7	1.0					
